In data set [1] the target is T1, MexR (Pseudomonas aeruginosa, UniProt P52003 5-139).
T1 sequence: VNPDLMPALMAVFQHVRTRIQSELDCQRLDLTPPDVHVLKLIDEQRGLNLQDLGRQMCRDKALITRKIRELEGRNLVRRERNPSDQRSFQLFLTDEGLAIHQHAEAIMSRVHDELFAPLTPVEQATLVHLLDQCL
The data set can be described thus: ITC; one MexR dimer per duplex; 20 C; ITC: 20 mM sodium phosphate pH 7.1, 150 mM NaCl, 5 mM beta-mercaptoethanol, 20 C; complex sample buffer: 20 mM sodium phosphate pH 7.1, 150 mM NaCl, 10 mM DTT. The settings on record: protein: recombinant; tags: 6xHis-thioredoxin tag removed with TEV; chain copies: 2; blunt. A general note: In ITC the heat of successive injections is recorded.

Data set [2] concerns the molecule itself. The data set can be described thus: SEC-MALS; Superdex 75 Increase 5/150, 20 mM HEPES pH 7.1, 150 mM NaCl, 10 mM DTT, 1% v/v glycerol, 0.3 mL/min, 20°C; MALLS with RI detection. (In general: SEC sorts molecules by how far they enter the pores of the column.)

B1: PII DNA (dsDNA)
DNA 1: CTTATTTTAGTTGACCTTATCAACCTTGTTTCAG
DNA 2: CTGAAACAAGGTTGATAAGGTCAACTAAAATAAG
The term Kd denotes the concentration at which binding is half-saturated. Take B1: in data set [1], the Kd was found to be 240 nM.

B2: MexR (Val5-Leu139) (domain or fragment)
chain: VNPDLMPALMAVFQHVRTRIQSELDCQRLDLTPPDVHVLKLIDEQRGLNLQDLGRQMCRDKALITRKIRELEGRNLVRRERNPSDQRSFQLFLTDEGLAIHQHAEAIMSRVHDELFAPLTPVEQATLVHLLDQCL
notes: MexR, transcriptional repressor of the MarR family, Pseudomonas aeruginosa, UniProt P52003, residues Val5-Leu139; Homodimer in solution; also called apo-MexR; hMexR; source: E. coli BL21 Rosetta 2(DE3), purified (Ni-NTA IMAC, TEV cleavage, reverse IMAC, Superdex 75)
What is called stoichiometry N is the number of molecules, sites or subunits per partner or assembly. Consider B2, for which, in data set [2], the “stoichiometry N” value worked out at 2.

(Values after paper PMC9892617, “Small-angle x-ray and neutron scattering of MexR and its complex with DNA supports a conformational selection binding model” (Biophysical Journal, 2022).)
